Test results from patent publication US7351555B2, “Mouse cytokine receptor Zcytor16” (ZymoGenetics, Inc., priority 2001, dated 2008).

T1: IL-TIF (Homo sapiens, UniProt Q9GZX6)
T1 sequence (Q9GZX6 34-179): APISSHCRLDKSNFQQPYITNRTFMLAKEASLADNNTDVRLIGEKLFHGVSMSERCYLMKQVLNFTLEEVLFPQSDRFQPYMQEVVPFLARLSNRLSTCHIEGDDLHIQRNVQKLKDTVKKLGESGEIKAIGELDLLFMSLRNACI


Assays:
[1] = K-562 cytotoxicity assay (MTT); assay type: cell-based, human; conditions: human, K-562 cells, 100 uM
Method: The K-562 cell line (CRL-243, ATCC) has attained widespread use as a highly sensitive in vitro target for cytotoxicity assays. K-562 blasts are multipotential, hematopoietic malignant cells that spontaneously differentiate into recognizable progenitors of the erythrocytic, granulocytic and monocytic series (Lozzio, B B et al., Proc. Soc. Exp. Biol. Med. 166: 546-550, 1981).
K562 cells were plated at 5,000 cells/well in 96-well tissue culture clusters (Costar) in DMEM phenol-free growth medium (Life Technologies) supplemented with pyruvate and 10% serum (HyClone). Next day, human recombinant IL-TIF (Example 19), BSA control or retinoic acid (known to be cytotoxic to K562 cells) were added. Seventy-two hours later, the vital stain MTT (Sigma, St Louis, Mo.), a widely used indicator of mitochondrial activity and cell growth, was added to the cells at a final concentration of 0.5 mg/ml. […] is converted to a purple formazan derivative by mitochondrial dehydrogenases. Four hours later, converted MMP was solubilized by adding an equal volume of acidic, isopropanol (0.04N HCl in absolute isopropanol) to the wells. Absorbance was measured at 570 nm, with background subtraction at 650 nm. In this experimental setting, absorbance reflects cell viability. Results shown in Table 12 are expressed as % cytotoxicity.

IL-TIF [2] = target: T1, IL-TIF; assay: COS cell secretion trap binding of Zcytor16sR/Fc4 to Class II cytokines; design: expressed in transfected cells; host or cells: COS cells; conditions: 1-3 μg/ml Zcytor16sR-Fc4; COS cells transfected with IL-TIF cDNA
Method: COS cell transfections were performed as follows: A mixture of 0.5 μg DNA and 5 μl lipofectamine (Gibco BRL) in 92 ul serum free DMEM media (55 mg sodium pyruvate, 146 mg L-glutamine, 5 mg transferrin, 2.5 mg insulin, 1 μg selenium and 5 mg fetuin in 500 ml DMEM) was incubated at room temperature for 30 minutes and then 400 μl serum free DMEM media added. A 500 μl mixture was added onto COS cells plated on 12-well tissue culture plate at 1.5×10^5 COS cells/well and previously incubated for 5 hours at 37° C. An additional 500 μl 20% FBS DMEM media (100 ml FBS, 55 mg sodium pyruvate and 146 mg L-glutamine in 500 ml DMEM) was added and the plates were incubated overnight.
The secretion trap was performed as follows: Media was rinsed off cells with PBS and fixed for 15 minutes with 1.8% Formaldehyde in PBS. Cells were then washed with TNT (0.1M Tris-HCl, 0.15M NaCl, and 0.05% Tween-20 in H2O). Cells were permeated with 0.1% Triton-X in PBS for 15 minutes and washed again with TNT. […]

IL-TIF [3] = target: T1, IL-TIF; assay: IL-TIF antagonist activity in BaF3/CRF2-4/zcytor11 Alamar Blue proliferation assay; assay type: cell-based; design: the coding region. for human IL-TIF, without its stop codon; made in house; host or cells: BHK 570 cells; conditions: Zcytor16 at 10 μg/ml; IL-TIF at all concentrations (0.06-50 ng/ml)
Excerpt: Purified human IL-TIF-CEE (Example 19) was used to test for the presence of proliferation activity as described below. Purified humsn Zcytor16-Fc4 (Example 11) was used to antagonize the proliferative response of the IL-TIF in this assay as described below.
BaF3/CRF2-4/zcytor11 cells were spun down and washed in the complete media, described in Example 7A above, but without mIL-3 (hereinafter referred to as “mIL-3 free media”). The cells were spun and washed 3 times to ensure the removal of the mIL-3. Cells were then counted in a hemacytometer. Cells were plated in a 96-well format at 5000 cells per well in a volume of 100 μl per well using the mIL-3 free media.
Proliferation of the BaF3/CRF2-4/zcytor11 cells was assessed using IL-TIF-CEE protein diluted with mIL-3 free media to 50, 10, 2, 1, 0.5, 0.25, 0.13, 0.06 ng/ml concentrations. 100 μl of the diluted protein was added to the BaF3/CRF2-4/zcytor11 cells. […] Alamar Blue gives a fluourometric readout based on number of live cells, and is thus a direct measurement of cell proliferation in comparison to a negative control. […] Plates were read on the Fmax™ plate reader (Molecular Devices Sunnyvale, Calif.) using the SoftMax™ Pro program, at wavelengths 544 (Excitation) and 590 (Emmission). […] The response, as measured, was approximately 15-fold over background at the high end of 50 ng/ml down to a 2-fold induction at the low end of 0.06 ng/ml. […]

IL-TIF [4] = target: T1, IL-TIF; assay: Inhibition of IL-TIF reporter activation in MES 13 cells by Zcytor16-Fc4; assay type: cell-based; conditions: for LU w/10 μg/ml zcytoR16: zcytoR16 10 μg/ml
Method: MES 13 cells (ATCC No. CRL-1927) were plated at 10,000 cells/well in 96-well tissue culture clusters (Costar) in DMEM growth medium (Life Technologies) supplemented with pyruvate and 10% serum (HyClone). Next day, the medium was switched to serum free DMEM medium by substituting 0.1% BSA (Fraction V; Sigma) for serum. This medium also contained the adenoviral construct KZ136 (below) that encodes a luciferase reporter mini-gene driven by SRE and STAT elements, at a 1000:1 multiplicity of infection (m.o.i.), i.e. 1000 adenoviral particles per cell. After allowing 24 h for the incorporation of the adenoviral construct in the cells, the media were changed and replaced with serum-free media. Human recombinant IL-TIF with or without a recombinant Zcytor16-Fc4 fusion was added at the indicated final concentration in the well (as described in Table 11, below). Dilutions of both the IL-TIF and Zcytor16-Fc4 were performed in serum-free medium. 0.1% BSA was added for a basal assay control. 4 h later, cells were lysed and luciferase activity, denoting activation of the reporter gene, was determined in the lysate using an Luciferase Assay System assay kit (Promega) and a Labsystems Luminoskan luminometer (Labsystems, Helsinki, Finland). Activity was expressed as luciferase units (LU) in the lysate.
The construction of the adenoviral KZ136 vector was as follows. The original KZ136 vector is disclosed in Poulsen, L K et al. J. Biol. Chem. 273:6228-6232, 1998. The CMV promoter/enhancer and SV40 pA sequences were removed from pACCMV.pLpA (T. C. Becker et al., […] 43:161-189, 1994.) and replaced with a linker containing Asp718/KpnI and HindIII sites (oligos ZC13252 (SEQ ID NO:26) and ZC13453 (SEQ ID NO:27)). The STAT/SRE driven luciferase reporter cassette was exised from vector KZ136 (Poulsen, L K et al., supra.).) as a Asp718/KpnI-HindIII fragment and inserted into the adapted pAC vector. Recombinant KZ136 Adenovirus was produced by transfection with JM17 Adenovirus into 293 cells as described in T. C. Becker et al. supra.). Plaque purified virus was amplified and used to infect cultured cells at 5-50 pfu/cell 12-48 hours before assay. Luciferase reporter assays were performed as described in 96 well microplates as per Poulsen, L K et al., supra.).

Row | Molecule | cytotoxicity at 72 h, 100 µM [1] [%] | binding of Zcytor16sR/Fc4 to cytokine-transfected COS cells (IL-TIF [2]) | response to IL-TIF in presence of Zcytor16 (IL-TIF [3]) | LU w/10 μg/ml zcytoR16 (IL-TIF [4]; IL-TIF 0 ng/ml (basal BSA control)) [LU] | LU w/10 μg/ml zcytoR16 (IL-TIF [4]; IL-TIF 0.03 ng/ml) [LU] | LU w/10 μg/ml zcytoR16 (IL-TIF [4]; IL-TIF 0.3 ng/ml) [LU] | LU w/10 μg/ml zcytoR16 (IL-TIF [4]; IL-TIF 3 ng/ml) [LU] | LU w/10 μg/ml zcytoR16 (IL-TIF [4]; IL-TIF 30 ng/ml) [LU] | LU w/10 μg/ml zcytoR16 (IL-TIF [4]; IL-TIF 300 ng/ml) [LU] | antagonism of the response to IL-TIF (IL-TIF [4]; even at the highest dose of IL-TIF used)
1 | CC1=C(/C=C/C(C)=C/C=C/C(C)=C/C(=O)O)C(C)(C)CCC1 [Retinoic acid, reference compound] | 62 | – | – | – | – | – | – | – | – | –
2 | Zcytor16sR/Fc4: soluble human Zcytor16 polypeptide (residue 22 to 231 of SEQ ID NO:2) fused to a C-terminal Fc4 tag (protein) TQSTHESLKPQRVQFQSRNFHNILQWQPGRALTGNSSVYFVQYKIYGQRQWKNKEDCWGTQELSCDLTSETSDIQEPYYGRVRAASAGSYSEWSMTPRFTPWWETKIDPPVMNITQVNGSLLVILHAPNLPYRYQKEKNVSIEDYYELLYRVFIINNSLEKEQKVYEGAHRAVEIEALTPHSSYCVVAEIYQPMLDRRSQRSEERCVEIPEPRSSDKTHTCPPCPAPEAEGAPSVFLFPPKPKDTLMISRTPEVTCVVVDVSHEDPEVKFNWYVDGVEVHNAKTKPREEQYNSTYRVVSVLTVLHQDWLNGKEYKCKVSNKALPSSIEKTISKAKGQPREPQVYTLPPSRDELTKNQVSLTCLVKGFYPSDIAVEWESNGQPENNYKTTPPVLDSDGSFFLYSKLTVDKSRWQQGNVFSCSVMHEALHNHYTQKSLSLSPGK | – | positive binding | brought down to background | 104 ± 2 | 104 ± 4 | 99 ± 6 | 98 ± 15 | 110 ± 3 | 112 ± 30 | effectively blocks the response to IL-TIF
